Legend:
[1] = target: T1, AtoA/AtoD complex (butyrate-acetoacetate CoA transferase) (Cloacimonas acidaminivorans (SeqCode), UniProt B0VIH1+B0VIH2); assay: CoA transferase assay, acetoacetyl-CoA formation at […] nm; assay type: biochemical; settings: 4 mM MgCl2, 50 mM Tris/HCl pH 8.1
T1 construct: each subunit in pEXP-5-NT/TOPO, E. coli, mixed equimolar; by primers AtoA (M)ALDKRAM...ERVNTF, AtoD (M)VQIISA...VLAKEN
T1 sequence (B0VIH1 1-218): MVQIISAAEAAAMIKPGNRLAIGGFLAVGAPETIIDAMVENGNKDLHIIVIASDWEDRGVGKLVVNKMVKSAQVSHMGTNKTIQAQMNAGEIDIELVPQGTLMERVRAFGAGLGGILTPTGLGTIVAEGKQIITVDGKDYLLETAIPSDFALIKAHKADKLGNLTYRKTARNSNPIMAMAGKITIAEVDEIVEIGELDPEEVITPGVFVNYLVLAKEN
T1 sequence (B0VIH2 1-217): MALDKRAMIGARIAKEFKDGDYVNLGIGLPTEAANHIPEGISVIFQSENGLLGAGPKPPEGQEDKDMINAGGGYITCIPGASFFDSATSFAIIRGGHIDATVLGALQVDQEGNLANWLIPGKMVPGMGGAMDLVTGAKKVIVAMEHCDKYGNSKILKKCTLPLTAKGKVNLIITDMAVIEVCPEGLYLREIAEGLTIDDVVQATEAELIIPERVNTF

[2] = target: T2, Kat (HemL-like), 3-aminobutyryl-CoA aminotransferase (Cloacimonas acidaminivorans (SeqCode), UniProt B0VH76); assay: spectrophotometric, acetoacetyl-CoA formation at […] nm; assay type: biochemical; settings: 25 µM (3S)-3-aminobutyryl-CoA; 50 mM Tris/HCl pH 8.1, 5 mM MgCl2
T2 construct: full-length CDS in pEXP-5-NT/TOPO, E. coli; by primers starts (M)AEKLKLA, ends EVKKML
T2 sequence (B0VH76 1-414): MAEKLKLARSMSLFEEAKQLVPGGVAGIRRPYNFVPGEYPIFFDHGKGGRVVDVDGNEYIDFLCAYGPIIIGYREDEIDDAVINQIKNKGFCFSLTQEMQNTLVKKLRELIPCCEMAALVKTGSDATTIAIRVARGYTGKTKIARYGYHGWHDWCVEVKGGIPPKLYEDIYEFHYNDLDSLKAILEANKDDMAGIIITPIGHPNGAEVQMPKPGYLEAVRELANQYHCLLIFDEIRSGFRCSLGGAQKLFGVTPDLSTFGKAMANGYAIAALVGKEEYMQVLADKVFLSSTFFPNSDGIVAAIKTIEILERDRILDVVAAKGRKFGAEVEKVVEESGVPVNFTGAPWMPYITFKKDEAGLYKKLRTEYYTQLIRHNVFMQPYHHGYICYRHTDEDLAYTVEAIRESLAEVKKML

purified protein [3] = substrate: C[C@H](N)CC(=O)SCCNC(=O)CCNC(=O)[C@H](O)C(C)(C)COP(=O)(O)OP(=O)(O)OC[C@H]1O[C@@H](n2cnc3c(N)ncnc32)[C@H](O)[C@@H]1OP(=O)(O)O; assay: purified protein; assay type: biochemical, Cloacimonas acidaminivorans (SeqCode); settings: 50 mM α-ketoglutarate, 50 mM Tris/HCl pH 8.1, 5 mM MgCl2
purified protein [4] = substrate: O=C(O)CCC(=O)C(=O)O; assay: purified protein; assay type: biochemical, Cloacimonas acidaminivorans (SeqCode); settings: 25 µM (3S)-3-aminobutyryl-CoA, 50 mM Tris/HCl pH 8.1, 5 mM MgCl2

For `CC(=O)CC(=O)O` [acetoacetate], the “CoA transferase assay, acetoacetyl-CoA formation at 310 nm” value ([1]; acetyl-CoA as CoA donor) was “formation in vitro of acetoacetyl-CoA and acetate from acetoacetate and acetyl-CoA”.

For `CC(=O)C(=O)O` [pyruvate], the “K m (M)” value [2] was 20.1±1.3 10^−3 M.

For `CC(=O)SCCNC(=O)CCNC(=O)[C@H](O)C(C)(C)COP(=O)(O)OP(=O)(O)OC[C@H]1O[C@@H](n2cnc3c(N)ncnc32)[C@H](O)[C@@H]1OP(=O)(O)O` [acetyl-CoA], the “CoA transferase assay, acetoacetyl-CoA formation at 310 nm” value ([1]; 10 mM acetoacetate) was “formation in vitro of acetoacetyl-CoA and acetate from acetoacetate and acetyl-CoA”.

B1: Kat (HemL-like), 3-aminobutyryl-CoA aminotransferase (Candidatus Cloacimonas acidaminivorans str. Evry) (protein)
chain: MAEKLKLARSMSLFEEAKQLVPGGVAGIRRPYNFVPGEYPIFFDHGKGGRVVDVDGNEYIDFLCAYGPIIIGYREDEIDDAVINQIKNKGFCFSLTQEMQNTLVKKLRELIPCCEMAALVKTGSDATTIAIRVARGYTGKTKIARYGYHGWHDWCVEVKGGIPPKLYEDIYEFHYNDLDSLKAILEANKDDMAGIIITPIGHPNGAEVQMPKPGYLEAVRELANQYHCLLIFDEIRSGFRCSLGGAQKLFGVTPDLSTFGKAMANGYAIAALVGKEEYMQVLADKVFLSSTFFPNSDGIVAAIKTIEILERDRILDVVAAKGRKFGAEVEKVVEESGVPVNFTGAPWMPYITFKKDEAGLYKKLRTEYYTQLIRHNVFMQPYHHGYICYRHTDEDLAYTVEAIRESLAEVKKML
notes: full-length CDS in pEXP-5-NT/TOPO, E. coli; by primers starts (M)AEKLKLA, ends EVKKML
With B1 the kcat (purified protein [3]) was 1.8 ± 0.2 s⁻¹, the kcat/Km (purified protein [3]) was 420000 M⁻¹ s⁻¹ and the kcat (purified protein [4]) was 1.8 ± 0.1 s⁻¹. It also gave a kcat/Km (purified protein [4]) of 620 M⁻¹ s⁻¹.

Source: paper PMC3149608, “A Novel Acyl-CoA Beta-Transaminase Characterized from a Metagenome” (PLoS ONE, 2011)
